Experimental data published in patent US20100068807.

Target: GST fusion IRF7 (GST fused to amino acids 422-457 of mouse IRF-7, from pGST-IRF7) [GST: P08515]

B1: 6myc-mIKKα (wild-type mouse IKKα with 6 myc tags, expressed from pSRα-6myc-mIKKα in 293T cells) (protein)
chain: MERPPGLRPGAGGPWEMRERLGTGGFGNVSLYQHRELDLKIAIKSCRLELSSKNRERWCHEIQIMKKLDHANVVKACDVPEELNFLINDVPLLAMEYCSGGDLRKLLNKPENCCGLKESQILSLLSDIGSGIRYLHENKIIHRDLKPENIVLQDVGGKTIHKIIDLGYAKDVDQGSLCTSFVGTLQYLAPELFENKPYTATVDYWSFGTMVFECIAGYRPFLHHLQPFTWHEKIKKKDPKCIFACEEMTGEVRFSSHLPQPNSLCSLIVEPMESWLQLMLNWDPQQRGGPIDLTLKQPRCFALMDHILNLKIVHILNMTSAKIISFLLPCDESLHSLQSRIERETGINTGSQELLSETGISLDPRKPASQCVLDGVRGCDSYMVYLFDKSKTVYEGPFASRSLSDCVNYIVQDSKIQLPIIQLRKVWAEAVHYVSGLKEDYSRLFQGQRAAMLSLLRYNANLTKMKNTLISASQQLKAKLEFFRKSIQLDLERYSEQMTYGISSEKMLKAWKEMEEKAIHYSEVGVIGYLEDQIMSLHTEIMELQKSPYGRRQGDLMESLEQRAIDLYKQLKHRPPDHLYSDSTEMVKIIVHTVQSQDRVLKELFGHLSKLLGCKQKIIDLLPKVEVALSNIKEADNTVMFMQGKRQKEIWHLLKIACTQSSARSLVGSSLEGTVTPPVSAWLPPTLADREHPLTCVVTPQDGETLAQMIEENLNCLGHLSTIIREANEDQSSSLMSLDWSWLAE
phosphorylation of substrate (in vitro kinase assay with [γ-32P]ATP, SDS-PAGE and autoradiography): IRF7 was phosphorylated by IKKα
